B1: HA-tagged zDHHC5 [murine] / human PLM expressed in HEK-derived FT-293 cells [human] (parent)
chain 1: MPAESGKRFKPSKYVPVSAAAIFLVGATTLFFAFTCPGLSLNVSPAVPIYNAIMFLFVLANFSMATFMDPGIFPRAEEDEDKEDDFRAPLYKTVEIKGIQVRMKWCATCRFYRPPRCSHCSVCDNCVEEFDHHCPWVNNCIGRRNYRYFFLFLLSLTAHIMGVFGFGLLYVLYHIEELSGVRTAVTMAVMCVAGLFFIPVAGLTGFHVVLVARGRTTNEQVTGKFRGGVNPFTNGCCNNVSRVLCSSPAPRYLGRPKKEKTIVIRPPFLRPEVSDGQITVKIMDNGIQGELRRTKSKGSLEITESQSADAEPPPPPKPDLSRYTGLRTHLSLATNEDSSLLGKDSPPTPTMYKYRPGYSSSSTSAAMPHSSSAKLSRGDSLKEPTSIADSSRHPSYRSEPSLEPESFRSPTFGKSFHFDPLSSGSRSSSLKSAQGTGFELGQLQSIRSEGTTSTSYKSLANQTRNGSLSYDSLLTPSDSPDFESVQAGPEPDPPLGYTSPFLSARLAQQREAERHPRLLPTGPPHREPSPVRYDNLSRHIVASLQEREKLLRQSPPLAGREEEPGLGDSGIQSTPGSGHAPRTSSSSDDSKRSPLSKTPLGRPAVPRFGKPDGLRSRGLGSPEPGTTAPYLGRSISYSSQKAPSGVSETEEVALQPLLTPKDEVQLKTTYSKSNGQPKSIGSASPGPGQPPLSSPTRGGVKKVSGVGGTTYEISV
chain 2: ESPKEHDPFTYDYQSLQIGGLVIAGILFILGILIVLSRRCRCKFNQQQRTGEPDEEEGTFRSSIRRLSTRRR

The record followed here is article PMC7395175.

The variants in this experiment derive from B1. As to the kind of experiment: co-immunoprecipitation (HA IP, Western blot quantified). The following applies: with human PLM expressed in HEK-derived FT-293 cells [human]; n = 3; read off a plot. In general terms: In western blotting, separated proteins are transferred to a membrane and probed.
As to chain 1 C236A C237A, the response is 0.79 PLM/HA.
